Data from paper PMC4469607.

Tests used:
[1] = target: Hcp from Acinetobacter baumannii AB0057, tag-free (Acinetobacter baumannii strain AB0057); assay: AUC; sedimentation equilibrium, 20°C, Hcp at 1.0 and 2.5 mg/ml, 20 mM Tris-HCl pH 7.5, 200 mM NaCl, 0.2 mM DTT, 2% glycerol
[2] = target: Hcp from Acinetobacter baumannii AB0057, tag-free (Acinetobacter baumannii strain AB0057); assay: negative-staining electron microscopy; Hcp at 0.02 mg/ml in 20 mM Tris-HCl pH 7.5, 200 mM NaCl, 2 mM DTT, stained with 1% uranyl formate; reference-free 2D classification
[3] = target: Hcp from Acinetobacter baumannii AB0057, C-terminal His-tagged (Acinetobacter baumannii strain AB0057); assay: crystal structure; X-ray, 1.55 Å, space group P6; crystals from 2.0 M ammonium sulfate, 0.1 M Hepes pH 7.5, 4°C; hexamer made by the 6-fold crystallographic symmetry; interfaces analysed with PISA

Row | Substance | stoichiometry N [1] | stoichiometry N [2] | stoichiometry N [3]
1 | Hcp from Acinetobacter baumannii AB0057, tag-free (natural protein) | 6 | 6 | 
2 | Hcp from Acinetobacter baumannii AB0057, C-terminal His-tagged (natural protein) |  |  | 6
